Reference: article PMC12432892, “Therapeutic applications of interface-mimicking peptides for targeting the SARS-CoV-2 NSP12-NSP8 RdRp complex” (Molecular Therapy, 2025)

Target: SARS-CoV-2 NSP12 (SARS-CoV-2), P0DTD1

B1: N8-Pepα (peptide)
chain: NDALNNIINNARDGCVPLNIIPLTTA
modifications: not checked
- IC50 of inhibition of SARS-CoV-2 RdRp activity in the cell-based minigenome (luciferase) assay; pair blocked: NSP12-NSP8: 8 µM
